Here are results for one molecule from US20110195849A1 (DUKE UNIVERSITY, published 2011).

In general, Kd refers to the equilibrium constant for the complex coming apart. Low readings indicate higher affinity, high ones lower affinity.

In assay [1] the target is T1, MutSβ (MSH2-MSH3) (human, UniProt P43246 2-934; P20585 1-1137).
T1 construct: mature;range 1-1137; Recombinant heterodimer from baculovirus-infected Sf9 cells; 232 kDa; also called wild type MutSβ; MSH2-MSH3 heterodimer
Nature of the assay: SPRS, MutLα varied with 0.10 µM MutSβ on heteroduplex DNA, 1 mM ATP. An excerpt:
MutSβ PIP box mutants are defective in MutLα interaction—Interaction between MutS and MutL homologs has been documented in several systems (3, 4), but the nature of the human MutLα-MutSβ complex has not been addressed. We have therefore used SPRS to examine the capacity of MutSβ and its PIP box mutants to support formation of a MutLα-MutSβ-DNA ternary complex. With reference to FIG. 2A, ATP-dependent assembly of the MutLα-MutSβ-DNA ternary complex was scored by SPRS using a 200 bp -TG- I/D heteroduplex (solid lines) or homoduplex (dashed lines) DNA. […] Similar analyses were performed with MutSβΔ28 (middle panel) and MutSβ-F27A-F28A. […] This mass increase was not observed in the absence of ATP (not shown), and we were unable to detect DNA binding by MutLα alone (not shown). The latter results are consistent with previous findings that assembly of ternary complexes involving MutL and MutS homologs is ATP-dependent and that DNA binding by MutL homologs is limited at physiological ionic strength (17, 25, 35-38). The lifetime of the ternary complex is also short, with 80% dissociating with a t_{1/2} of 7s. […] Complex formation on homoduplex DNA (open symbols) was not saturable.

For assay [2], the target named is T1, MutSβ (MSH2-MSH3). Nature of the assay: SPRS, MutLα-MutSβ-DNA ternary complex.

T1 sequence (P43246 2-934 limits assumed, chain 1 of 2): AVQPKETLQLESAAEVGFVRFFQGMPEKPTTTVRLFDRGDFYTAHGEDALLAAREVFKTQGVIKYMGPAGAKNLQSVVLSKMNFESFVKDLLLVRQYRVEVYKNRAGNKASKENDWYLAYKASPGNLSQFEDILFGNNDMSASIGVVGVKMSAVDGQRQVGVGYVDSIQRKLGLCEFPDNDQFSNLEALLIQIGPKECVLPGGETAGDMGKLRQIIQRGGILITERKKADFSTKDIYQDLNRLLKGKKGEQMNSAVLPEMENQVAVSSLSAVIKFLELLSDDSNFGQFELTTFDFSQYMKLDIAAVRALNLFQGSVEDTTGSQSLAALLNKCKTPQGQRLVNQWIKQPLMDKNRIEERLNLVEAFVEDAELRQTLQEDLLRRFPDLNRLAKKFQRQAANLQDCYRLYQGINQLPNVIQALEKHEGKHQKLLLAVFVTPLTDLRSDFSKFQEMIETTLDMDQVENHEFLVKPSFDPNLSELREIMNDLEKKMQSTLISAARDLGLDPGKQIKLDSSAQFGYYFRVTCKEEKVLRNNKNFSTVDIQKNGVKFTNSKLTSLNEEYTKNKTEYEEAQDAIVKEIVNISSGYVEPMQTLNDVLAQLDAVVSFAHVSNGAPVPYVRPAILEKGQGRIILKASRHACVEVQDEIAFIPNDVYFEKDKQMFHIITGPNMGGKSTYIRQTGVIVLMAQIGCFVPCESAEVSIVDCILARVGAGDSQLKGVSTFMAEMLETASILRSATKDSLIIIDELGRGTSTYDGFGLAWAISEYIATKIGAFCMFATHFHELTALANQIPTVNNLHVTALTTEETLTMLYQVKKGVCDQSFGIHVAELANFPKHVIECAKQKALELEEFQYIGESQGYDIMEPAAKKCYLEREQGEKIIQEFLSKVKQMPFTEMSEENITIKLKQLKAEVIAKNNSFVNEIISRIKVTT
T1 sequence (P20585 whole entry, chain 2 of 2): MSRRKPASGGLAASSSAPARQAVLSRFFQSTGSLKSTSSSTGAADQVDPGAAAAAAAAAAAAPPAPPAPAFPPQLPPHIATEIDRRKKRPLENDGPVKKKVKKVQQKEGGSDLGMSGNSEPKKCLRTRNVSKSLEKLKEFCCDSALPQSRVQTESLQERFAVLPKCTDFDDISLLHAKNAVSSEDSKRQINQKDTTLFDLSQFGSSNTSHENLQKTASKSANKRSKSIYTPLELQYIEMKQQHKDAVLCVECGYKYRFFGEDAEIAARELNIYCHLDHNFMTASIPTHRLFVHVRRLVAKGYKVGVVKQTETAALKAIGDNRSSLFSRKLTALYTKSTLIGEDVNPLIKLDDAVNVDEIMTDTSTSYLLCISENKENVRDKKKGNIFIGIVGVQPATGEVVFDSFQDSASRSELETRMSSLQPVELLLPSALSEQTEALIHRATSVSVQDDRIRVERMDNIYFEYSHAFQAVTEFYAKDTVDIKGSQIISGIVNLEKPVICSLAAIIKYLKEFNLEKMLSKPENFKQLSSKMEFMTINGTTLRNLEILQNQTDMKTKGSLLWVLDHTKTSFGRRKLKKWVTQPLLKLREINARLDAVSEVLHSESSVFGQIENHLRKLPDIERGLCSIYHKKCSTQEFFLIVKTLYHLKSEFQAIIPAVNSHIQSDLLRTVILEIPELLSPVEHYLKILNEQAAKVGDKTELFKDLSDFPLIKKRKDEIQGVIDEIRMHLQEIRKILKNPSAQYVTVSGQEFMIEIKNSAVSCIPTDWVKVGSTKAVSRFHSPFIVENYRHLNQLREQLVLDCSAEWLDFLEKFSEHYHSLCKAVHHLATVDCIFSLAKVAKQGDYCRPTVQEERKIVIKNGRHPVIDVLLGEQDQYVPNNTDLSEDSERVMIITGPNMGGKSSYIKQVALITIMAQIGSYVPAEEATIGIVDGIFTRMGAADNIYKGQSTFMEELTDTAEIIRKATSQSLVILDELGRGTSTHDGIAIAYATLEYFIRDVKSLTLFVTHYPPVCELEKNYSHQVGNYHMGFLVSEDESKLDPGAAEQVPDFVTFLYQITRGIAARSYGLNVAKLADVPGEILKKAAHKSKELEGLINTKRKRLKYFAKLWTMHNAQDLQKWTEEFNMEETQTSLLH

B1: MutLα (MLH1-PMS2) (enzyme, human)
chain 1: MSFVAGVIRRLDETVVNRIAAGEVIQRPANAIKEMIENCLDAKSTSIQVIVKEGGLKLIQIQDNGTGIRKEDLDIVCERFTTSKLQSFEDLASISTYGFRGEALASISHVAHVTITTKTADGKCAYRASYSDGKLKAPPKPCAGNQGTQITVEDLFYNIATRRKALKNPSEEYGKILEVVGRYSVHNAGISFSVKKQGETVADVRTLPNASTVDNIRSIFGNAVSRELIEIGCEDKTLAFKMNGYISNANYSVKKCIFLLFINHRLVESTSLRKAIETVYAAYLPKNTHPFLYLSLEISPQNVDVNVHPTKHEVHFLHEESILERVQQHIESKLLGSNSSRMYFTQTLLPGLAGPSGEMVKSTTSLTSSSTSGSSDKVYAHQMVRTDSREQKLDAFLQPLSKPLSSQPQAIVTEDKTDISSGRARQQDEEMLELPAPAEVAAKNQSLEGDTTKGTSEMSEKRGPTSSNPRKRHREDSDVEMVEDDSRKEMTAACTPRRRIINLTSVLSLQEEINEQGHEVLREMLHNHSFVGCVNPQWALAQHQTKLYLLNTTKLSEELFYQILIYDFANFGVLRLSEPAPLFDLAMLALDSPESGWTEEDGPKEGLAEYIVEFLKKKAEMLADYFSLEIDEEGNLIGLPLLIDNYVPPLEGLPIFILRLATEVNWDEEKECFESLSKECAMFYSIRKQYISEESTLSGQQSEVPGSIPNSWKWTVEHIVYKALRSHILPPKHFTEDGNILQLANLPDLYKVFERC
chain 2: MERAESSSTEPAKAIKPIDRKSVHQICSGQVVLSLSTAVKELVENSLDAGATNIDLKLKDYGVDLIEVSDNGCGVEEENFEGLTLKHHTSKIQEFADLTQVETFGFRGEALSSLCALSDVTISTCHASAKVGTRLMFDHNGKIIQKTPYPRPRGTTVSVQQLFSTLPVRHKEFQRNIKKEYAKMVQVLHAYCIISAGIRVSCTNQLGQGKRQPVVCTGGSPSIKENIGSVFGQKQLQSLIPFVQLPPSDSVCEEYGLSCSDALHNLFYISGFISQCTHGVGRSSTDRQFFFINRRPCDPAKVCRLVNEVYHMYNRHQYPFVVLNISVDSECVDINVTPDKRQILLQEEKLLLAVLKTSLIGMFDSDVNKLNVSQQPLLDVEGNLIKMHAADLEKPMVEKQDQSPSLRTGEEKKDVSISRLREAFSLRHTTENKPHSPKTPEPRRSPLGQKRGMLSSSTSGAISDKGVLRPQKEAVSSSHGPSDPTDRAEVEKDSGHGSTSVDSEGFSIPDTGSHCSSEYAASSPGDRGSQEHVDSQEKAPKTDDSFSDVDCHSNQEDTGCKFRVLPQPTNLATPNTKRFKKEEILSSSDICQKLVNTQDMSASQVDVAVKINKKVVPLDFSMSSLAKRIKQLHHEAQQSEGEQNYRKFRAKICPGENQAAEDELRKEISKTMFAEMEIIGQFNLGFIITKLNEDIFIVDQHATDEKYNFEMLQQHTVLQGQRLIAPQTLNLTAVNEAVLIENLEIFRKNGFDFVIDENAPVTERAKLISLPTSKNWTFGPQDVDELIFMLSDSPGVMCRPSRVKQMFASRACRKSVMIGTALNTSEMKKLITHMGEMDHPWNCPHGRPTMRHIANLGVISQN
notes: Purified as in Iyer et al. (21)
The molecule B1 displayed a Kd in the assay with MutSβ (MSH2-MSH3) [1] of 400 nM. Moreover, the “t1/2 of dissociation of the ternary complex” value in the assay with MutSβ (MSH2-MSH3) [2] is 7 s.
